Results taken from patent US20260258158A1 (Janssen / Centocor, published 2026).

Molecular target: T1, Biotinylated Human CD3 epsilon&CD3 delta Heterodimer Protein, His, Avitag&Tag Free (AcroBiosystems) (human, UniProt P07766 23-126; P04234 22-105)
T1 construct: also called cluster of differentiation 3 (CD3); soluble CD3 antigen
Assay: BLI, biotinylated CD3 epsilon/delta on the tip, antibody as analyte (FIG. 24C)
From the text: In the BLI assay for CD3, due to nonspecific binding from the soluble CD3 antigen (Biotinylated Human CD3 epsilon&CD3 delta Heterodimer Protein, His, Avitag™&Tag Free from AcroBiosystems), the assay was reversed, i.e., immobilizing the antigen to the tip and using the bispecific antibodies as the analyte.

T1 sequence (P07766 23-126, stated change not applied, chain 1 of 2): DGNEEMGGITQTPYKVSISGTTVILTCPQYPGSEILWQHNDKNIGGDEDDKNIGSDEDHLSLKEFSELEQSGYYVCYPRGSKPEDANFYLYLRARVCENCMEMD
T1 sequence (P04234 22-105, stated change not applied, chain 2 of 2): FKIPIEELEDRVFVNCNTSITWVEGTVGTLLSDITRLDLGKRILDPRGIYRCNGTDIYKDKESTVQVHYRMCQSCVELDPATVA

B1: HLPPB423 (bispecific antibody, human IgG1, kappa)
heavy 1: not shown
light 1: not shown
heavy 2: EVQLVESGGGLVQPGGSLRLSCAASGYSFTGYTMNWVRQAPGKGLEWVALINPYKGVSTYNQKFKDRFTISVDKSKNTAYLQMNSLRAEDTAVYYCARSGYYGDSDWYFDVWGQGTLVTVSSASTKGPSVFPLAPSSKSTSGGTAALGCLVKDYFPEPVTVSWNSGALTSGVHTFPAVLQSSGLYSLSSVVTVPSSSLGTQTYICNVNHKPSNTKVDKKVEPKSCDKTHTCPPCPAPELLGGPSVFLFPPKPKDTLMISRTPEVTCVVVDVSHEDPEVKFNWYVDGVEVHNAKTKPREEQYNSTYRVVSVLTVLHQDWLNGKEYKCKVSNKALPAPIEKTISKAKGQPREPQVYTLPPSREEMTKNQVSLSCAVKGFYPSDIAVEWESNGQPENNYKTTPPVLDSDGSFFLVSKLTVDKSRWQQGNVFSCSVMHEALHNRFTQKSLSLSPGK
light 2: not shown
- binding result: binds
